System: HA-tagged wt ARRDC1

GFP-tagged WWP2, sequence (chain, as listed by the source): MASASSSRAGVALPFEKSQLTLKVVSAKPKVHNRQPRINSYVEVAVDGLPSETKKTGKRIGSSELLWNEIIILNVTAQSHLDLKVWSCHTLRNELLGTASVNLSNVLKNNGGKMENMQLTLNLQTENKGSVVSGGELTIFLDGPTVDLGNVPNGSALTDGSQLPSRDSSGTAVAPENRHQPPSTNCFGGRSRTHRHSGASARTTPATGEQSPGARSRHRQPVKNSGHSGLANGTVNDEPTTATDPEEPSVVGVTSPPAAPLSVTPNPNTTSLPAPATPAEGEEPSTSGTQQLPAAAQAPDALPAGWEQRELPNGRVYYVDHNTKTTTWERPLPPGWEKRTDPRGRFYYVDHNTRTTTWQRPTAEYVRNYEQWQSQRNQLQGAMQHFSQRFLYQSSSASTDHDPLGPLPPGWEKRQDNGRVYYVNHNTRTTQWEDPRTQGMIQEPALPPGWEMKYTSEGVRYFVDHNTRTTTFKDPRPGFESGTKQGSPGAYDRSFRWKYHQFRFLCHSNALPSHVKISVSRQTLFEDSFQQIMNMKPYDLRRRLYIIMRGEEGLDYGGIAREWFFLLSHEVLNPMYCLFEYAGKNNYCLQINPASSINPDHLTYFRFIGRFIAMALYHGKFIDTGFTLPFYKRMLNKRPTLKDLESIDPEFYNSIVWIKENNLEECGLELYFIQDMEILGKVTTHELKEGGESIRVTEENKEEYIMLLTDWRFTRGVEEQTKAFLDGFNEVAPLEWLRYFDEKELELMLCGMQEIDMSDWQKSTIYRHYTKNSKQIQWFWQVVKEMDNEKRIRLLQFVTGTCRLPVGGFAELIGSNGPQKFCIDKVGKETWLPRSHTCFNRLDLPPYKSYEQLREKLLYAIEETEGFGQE

Q: With GFP-tagged WWP2 as the substance, how does the “ubiquitination of ARRDC1 (immunoblot of WCEs and ARMMs)” value read?
A: The value was “ubiquitination of ARRDC1 was enhanced by WWP2”.
